Data reported in the DeepSol protein solubility set.

Assay: soluble on expression in E. coli; label from the status in PepcDB or PDB records

Sequence | soluble on expression in E. coli
MGSDKIHHHHHHVAISIAGGVRPGKVIEIERRLYKQLIVGKHKANAMPDELSAELEESANKLDIERKALKMRLEKQAKEKSVYVEVSALLTHTVNNAIEHQLAHPQMILEASAISENQILLLDLLLHPDLNINRLRPIIESINWLSRDLINLINSPASRHRRPKHGDVQVTDIKLVLNYIGIEHLRLLIPYFCLRNWLPSGNANLLWITRKLWRYSMVSAIAAQTLAELHNEEPGLAYSCALMYQFSTSIILSQSGRIFDNTWGTWLREASHSREKQVYDAIMATDFPAEEVLGQVLLHSHRLNWQLLSLLKFDDSPITQVLKELDHDYHFTELSADAAIVAKASCYAKVLLLEEQQQIDPQEKRIMFDYYQFSAQELIRLKGQNFRKLDLL | not soluble
MGSDKIHHHHHHMAKADLDKDPFDVASMFDDVGKNYDLTNTVLSFGQDRVWRKRTRQRLDLKPGEKVLDLAAGTAVSTVELAKSGAFCVACDFSQGMLAAGKDRDVSKVVGDGMQLPFADNSFDAVTISYGLRNIHDFRAGLKEMARVTKPGGRLTVAEFSTPVIPVFGTVYKEYLMRLLPQAARAVSSNPEAYIYLADSIRAWPSQAELAREINQNGWSDCGWQNLTFGIVALHSAIKPEN | not soluble
MGSDKIHHHHHHMRNPKPQEWKTEDYSQKKIADYKAFNFVDGEGVRNSLYVSGCLFACEGCFNKAVQNFNYGTPFTESLMNQIIEDLSHDYVQGLTLLGGEPFLNTDVCLSVVKRVRETFGSAKDIWSWSGYTFEELLLETPDKLELLHSIDILVDGRFELAKRNLNLQFRGSSNQRIIDVPKSLAAGKAVIWEKCHDAETSYEQIKKSI | not soluble
MGSDKIHHHHHHMSTSAPINRRLTKKIYVGDVAIGGDAPISVQSMTNTDTCDVAATVAQIERCVEAGADLMRVSTPTMDTVKAFGEIRKLVSVPLIADVHFDHKIALAVAAAGADCLRINPGNIGSDAKVREVVACAKHYNIPIRIGVNAGSLEKDIQRKYKEPNGAAMLESAMRHIDILERLNFDQYKVSVKASNVFLTMDAYRLISAQIDNPLHLGVTEAGVYRTGSVKSAIALGGLLLDGIGDTIRISLAAEPEEEIKIGFDILKSLNIRSNGVNFIACPSCSRQEFDVIRVMTALESRLEDIREPMNLSVIGCKVNGPGEAKEADIGIVGAAPKSLVYRMGEKSHLIDTDNLVDEIEGMVRAHAEELAKKRENEIIRVR | not soluble
MAHHHHHHMNVEVTGRCFFTGDDYYISLPITNRAANRGEPRQLLCSEMIHWDDYRQERGINDGKPPMQQLFASSYAEPLVRTFALGNDTYVTQVTGVSATQAGSSSQMFSAEMLHWDDYCAARGINAGEPTMASLFRPFESKSILVFDLNERKLTEFEGNSVALISYGADRQTYCSEMEHRDDYIRAKTGQAPQPSMASLFA | not soluble
MSLTLTLTGTGGAQGVPAWGCECAACARARRSPQYRRQPCSGVVKFNDAITLIDAGLHDLADRWSPGSFQQFLLTHYHMDHVQGLFPLRWGVGDPIPVYGPPDEQGCDDLFKHPGLLDFSHTVEPFVVFDLQGLQVTPLPLNHSKLTFGYLLETAHSRVAWLSDTAGLPEKTLKFLRNNQPQVMVMDCSHPPRADAPRNHCDLNTVLALNQVIRSPRVILTHISHQFDAWLMENALPSGFEVGFDGMEIGVALEHHHHHH | soluble
AKIGLFYGTQTGVTQTIAESIQQEFGGESIVDLNDIANADASDLNAYDYLIIGCPTWGVGELQSDWEGIYDDLDSVNFQGKKVAYFGAGDQVGYSDNFQDAMGILEEKISSLGSQTVGYWPIEGYDFNESKAVRNNQFVGLAIDEDNQPDLTKNRIKTWVSQLKSEFGL | soluble
MSNSITVRARGVNGQESVSLQVGGTTVQTWTLTTAMQDYTASTSLTGEIRVAFTNDATGRDVQVDYIVVNGQTRQAENQSVNTGVWANNQCGGSGNSEWLHCNGYISFGNVS | soluble
GPGSMLWVDRYRPKTLKDVELYPELKEVLTRLSKAQDLPHLLFYGPSGSGKKTRAMAMLHEIYGPSVFSVRLEHKSVQVSDSKVVDIATLSSPHHIDINPSDAGNYDRAIVMQMIREIAQTVPLHSTSGNRKNVPYKVVVLNEVDKMSRTAQHALRRTMEKYMNTCRLFLLCNSTSRLIPPLRSRCLGIRVASHSKDNLKLAVQRVCEGEGRPLPSVAFLNSLALRSDGNLRRGLLMLEASALAKVDWSGNGAAIPQADWKLFLDEISHDIVAEQTPKRLHEVRLKFYDLLAQCISGETILKTLVDSLLAAVAPALQRPLIELAAKYDHNMKLGTKPILHLEAFVAAVMKLIKQQ | not soluble
MSSFHATTIFAVQHKGRSAMSGDGQVTFGQAVVMKHTARKVRKLFNGKVLAGFAGSVADAFTLFEKFEAKLEEYNGNLKRAAVELAKEWRSDKVLRKLEAMLIVMNQDTLLLVSGTGEVIEPDDGILAIGSGGNYALAAGRALKKHAGESMSASEIARAALETAGEICVYTNDQIILEELE | soluble
MGSDKIHHHHHHMISNEQYDYLRAHPTFERLTRDSFDQLAKHIRFRKIPKGQIFFYAEDPRDYLFVLYKGYARIEQYDETDSFTYLDYIRQGGAFPFGDMFQDKPYHYTAIAITDLEYFIVPMVLFETLSKINPSQMVYICQKLSKVLRFQELRLRNAMRSKASDRVVQALALLYWDMCQRDQFATLPFEIHIQEISRLAATTRETVSHVLKQLKQDGKIAYSHKQLTYLDIDYFLENLTETH | not soluble
MLTPISIEKEHIRLINLLHFINEQNRWFTIKELSDYLQVADKTVRKYLKLLEDEIPPSWNLLVQKGKGIYLKKPLNESLSFVESKILRKSLNLQICEELVFKKNSMQSLAQKLHLQVGALYPIINQINYDIQSSHLNIKKKPLEISGREQDVRVFMLRLYCNIPNDYWPFPYINKQNITDLINKMEKILNVQMYTYSKHKLCVLFAITISRLLSGNTIDNVSGLILVNKNDDHYKTVASITSELQNSFGVTLHETEISFLALALLLSLGNSITTDSNKTLTSYKKTIMPLAKEITKGIEHKLQLGINYDESFLTYVVLIIKKALDKNFIQYYNYNIKFIRHIKQRHPNTFNTIQECISNLNYTVYSHFDCYEISLLTMHFETQRMLFKNNPKKIYVYTSQGCIHREYISALLEKRYNGLIKIVRNTIINLTNESLQDMEIDIIISNVNLPIKNIPIVQISEFPTERDFHEIKKII | not soluble
MQEAIITSTVDLTSGGCNACGLVEDTVYTLAMNGVDIPLDGLTVAHLVSAIVARNGFKQELQMDMLDDEYILYRKEDTTVTFKEAYNHLSYDNGSEKIQSKNKLEDLPKLFEQVNQILTTVFGIGTVNFIIE | not soluble
MIVQKELVAIYDYEVPVPEDPFSFRLEIHKCSELFTGSVYRLERFRLRPTFHQRDREDADPLINDALIYIRDECIDERKLRGESPETVIAIFNRELQNIFNQEIE | soluble
SSLENVVYNLVNAGHFDGRAGELPCAVIGEKVIAKIQNEDVVVFKNNTPFPTNVAVELFAKRSIRPHPELKLFRNLNIDVCWSHVLWDYAKDSVFCSSTYKVCKYTDLQCIESLNVLFDGRDNGALEAFKKCRNGVYINTTKIKSLSMIKGPQRADLNGVVVEKVGDSDVEFWFAVRKDGDDVIFSRTGSLEPSHYRSPQGNPGGNRVGDLSGNEALARGTIFTQSRLLSSFTPRSEMEKDFMDLDDDVFIAKYSLQDYAFEHVVYGSFNQKIIGGLHLLIGLARRQQKSNLVIQEFVTYDSSIHSYLITDENSGSSKSVCTVIDLLLDDFVDIVKSLNLKCVSKVVNVNVDFKDFQFMLWCNEEKVMTF | soluble
MGSDKIHHHHHHMRIDVDAFKVLEVLVEEGSFAKAAERLHKAQSAVSYQIKKLEQHLGVSLLSREQYRAELTAEGRVILAEGQRLLSHLANIEHLASRFSEGWEPKLELVIDGALPMEPIMTALKRMAEHQIPTKIQLNMEFLGGVQHRFERDNADLMLVKDYRTGPYYYAKPLPAITSVLLAAPHHPLAGRKALTLTELQQHVELTIEDSSPVKTYRDELQFGGDKVFYLSGFIMKKNALLKGLGFGWMPDFLVRDELKAGLLTEIDFVGGSRYTFVPQLVSTLERPLGRAGRLFTELILEEFAKEPMGIPEGLG | not soluble
MDATDDIRAGELASDWSGSPDAGVVFIGRIHTPWNRLKECPRHGRADGPVCRIEVFETWLPALAGIDDGTLLEVFYWLHRSRRDLLLQCPRNDGDARGTFSIRSPLRPNPIGTSIARVDRRDGANLFIRGLDCLDGTPLVDLKPDRAEFMPLAPPKPGDFQVGEPRR | soluble
MFFSHETILLICYNMLTLSKKISRIASEMIMKTKLIVVAGPTAVGKTALGIELAERFNGEIISGDSQQVYRQLNIGTAKATPEEQAAAVHHLIDVRDVDESYSAYDFVTEAQAAITDIVSRGKLPIIVGGTGLYLQSLLEGYHLGGKVDQNQVLAYRSELEQLSDQQLFEKIDSLGIEIKEINRRRAIRALELYRFSDNLENTETCYEPFIIGLDDERSLIYDRINTRVDKMVELGLLEEAKWLYDNFPEAQSARGIGYKELFPYFSGEQTLDEALEKLKQNTRRFAKRQLTWFRNRMTVSFYQISSPEYPENVIQDLAIFLNEEEGEKLEHHHHHH | soluble
MAYFIDRRLNGKNKSTVNRQRFLRRYKSQIKQSISEAINKRSVTDIESGESVSIPNADINEPMFHQGRGGHRHRVHPGNDHFVQNDKIERPQGGGGSGSGQGDASKDGEGDDEFVFQISKDEYLDLLFEDLALPNLKKTQHRQMTEYKMHRAGYTANGVPANISVVRSLQNSLARRMAMTAGKRRTLHELEESLEQLAYTEPAQLLEEERLREDIAELRKKIARVPFIDTFDLRYKNYERRAEPSSQAVMFCLMDVSGSMDQATKDMAKRFYILLYLFLSRNYKNVDVVYIRHHTQAKEVDEQEFFYSQETGGTIVSSALKLMEEVVRERYDPSQWNIYAAQASDGDNWADDSPLCHQILASKLLPMVRYYSYIEITRRSHQTLWREYETLRDTFDNFAMQHIRDQDDIYPVFRELFRKQTVGHLEHHHHHH | not soluble
MGSDKIHHHHHHMPLLDIRNLTIELNTNNTKVKVLEKVSLTLNAGEIHGLVGESGSGRSLLAKAILGALGPQWTVIADRLMLDGKNLLDMSPKQRRCLMGSDIAMIFQDPSGSLDPVKTIGSQLIESMTPNKAVAFWRRGKDTYLNALKWLHKVGIKNPKSLMSCYPWELSEGECQKVMIAMAIANRPKLLIADEPTNSVELNAQAQIFRLLSQLNQLQNVSILLISHELETLVQWCDHLTVLYGGQVMESGPTDEMIAHPFHPYTKALLKNLPDYTGKMRHKSYLPTLQGSSPSLHNMPAGCRLGPRCPEAQRNCVKQPALEHQKDRYFACHFPYLNEQDTDDDAIA | not soluble
MDLQTSSKFLQNQLAHLFQCERDSADVENSEGCFSTGNDPAFKDERLRFEFHTEPFNRRYLLRVVKVPP | not soluble
MGSDKIHHHHHHMINPQWLHTFAVLVEKGNFTRTAEAIGITQAAVSQHISRLEEEYGTLFLRRPRQLEITPIGENLLTYVKDVECAQKRLQQKLIHDDAEVGDISLITPGSIGLTLFPLLIELQQAFPALNIRHRFAPDSEIVASVLANEHEIGMVTLKPSDPRIHSTHFTEEPLELVVPACHKQNEWVDLQRLGFISHPDGEAMATRLLSRKYPSNPGIQDIPCKGFTNQISLILEPVAKGLGFTVIPQYARKAFERQQDIYVVECGSQVVDTIWLIHRAEWPLSRRAQKAITFLKGKI | not soluble
QRHADLIAARAGRPVTITAVCARDRSKNRDADLSGYAWETDAVALAQRADIDVFVEVMGGSEGAARASTEAALAAGKDVVTANKALLAHHGQALAEMAEAAGLAIRFEAAVAGGIPVIKALTEGLAGNQMRRVMGVMNGTCNYILTR | not soluble
MAHHHHHHMIENLQNCKKLRLLELGYNKIRMIENIEHLTNLEELWLGKNKIEQINLPYLPKLKKLSVQHNRLTDICEKSIKNILCVEELYISYNKINHIIDTFKDLKHLKVFDLSYNEINNISICSYLKSLEELWLNNNNIDNLEMIKKLSTIENLKTLYLEKNKIQDNLKENYRKTIIHILPQLKQLDALPIPSSPTLQK | not soluble
